Assay results from paper PMC7327521.

Target: (pY1-CTD)2, FAM-labelled tyrosine-phosphorylated CTD diheptad
Test: fluorescence polarisation

Question: With “Spt6-tSH2 R1281E/S1284A/R1285E (from UniProt Q6FLB1 1250-1444) (domain or fragment)” as the substance, how does the Kd read?
Answer: Its Kd is 48.3 µM.
